Source: paper PMC8351736 (Molecular Biology of the Cell, 2021)

T1: 6-histidine-tagged Tda2 (His-Tda2) (S. cerevisiae, UniProt P40045 2-126)
T1 sequence: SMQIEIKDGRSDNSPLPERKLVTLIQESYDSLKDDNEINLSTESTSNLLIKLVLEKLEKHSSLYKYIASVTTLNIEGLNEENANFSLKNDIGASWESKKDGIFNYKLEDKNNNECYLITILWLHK

T2: 6-histidine-tagged actin capping protein (His-Cap1/2 heterodimer) (S. cerevisiae, UniProt P28495 1-268; P13517 1-287)
T2 sequence (looked up) 1: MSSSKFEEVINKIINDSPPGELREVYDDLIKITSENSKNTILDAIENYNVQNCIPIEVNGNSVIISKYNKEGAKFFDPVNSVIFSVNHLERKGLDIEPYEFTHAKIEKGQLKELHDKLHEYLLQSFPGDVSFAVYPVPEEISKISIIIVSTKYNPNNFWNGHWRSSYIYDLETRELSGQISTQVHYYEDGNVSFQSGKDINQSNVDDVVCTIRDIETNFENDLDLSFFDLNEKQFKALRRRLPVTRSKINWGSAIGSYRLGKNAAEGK
T2 sequence (looked up) 2: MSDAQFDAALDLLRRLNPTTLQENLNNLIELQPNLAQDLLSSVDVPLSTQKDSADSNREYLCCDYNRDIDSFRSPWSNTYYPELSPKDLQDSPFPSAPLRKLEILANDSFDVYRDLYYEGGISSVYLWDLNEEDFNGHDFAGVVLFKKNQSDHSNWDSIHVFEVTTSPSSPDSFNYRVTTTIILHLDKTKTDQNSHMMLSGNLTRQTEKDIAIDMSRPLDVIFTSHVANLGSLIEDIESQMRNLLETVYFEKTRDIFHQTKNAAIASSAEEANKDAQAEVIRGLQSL

B1: Aim21^1-535-GST (domain or fragment, S. cerevisiae, UniProt P40563 1-535, looked up)
chain: MPSEVTPKVPERPSRRKTSELFPLSGSESGDIKANSEPPTPAGTPNVPTRRPILKAKTMTSFESGMDQESLPKVPLQRPVRRSTTEELNNVMNNTSKELEEIESLISKHNIHNVSRKKSPTSVEEGKVAAIHQNGQRSASDNKTSTNPSPLEKNEHEGAEGNESAISPSNLVNKSNNEVTEHSDSEDLTEKQKVHAALDNEAGDRSHFEEKLIPGDMKVQVDVSKDVEEGSLNALPPSGITESDDKAEKFTKHPESSLEELQKHQEQQEEKIFQNPTDEESTTSLNEKQEGKDNMEVNSQPQGPSDTETVIAATSSNVPSQIASEEENDVPVIPRSRPKKDFEAHVQKEELPNTQEKRVSEECDSTLISTEEESKIPKIPSERPKRRAPPPVPKKPSSRIAAFQEMLQKQQQQDLHNNGNSSATTASADIAKKHTDSSITSDTTKADFTSKLNGLFALPGMVNPGQLPPSLEKKLSSPDTESKLGPQDQSQAKTGPLGGTRRGRGPRGRKLPSKVASVEKIEEDDNTNKIEIFNN

Tests used:
[1] = target: T1, 6-histidine-tagged Tda2 (His-Tda2); assay: pull-down
[2] = target: T2, 6-histidine-tagged actin capping …; assay: pull-down

Binder | binding result [1] | binding result [2]
KLPSKVASVEKIEEDDNTNKIEIANNWNVSSSFSKEKVLIDTTPGE (domain or fragment, S. cerevisiae, UniProt P40563 510-555, looked up) [GST-Aim21^510-555 F533A] | binds | 
B1 |  | binds
